Reference: the supplement of paper PMC9170038

System: MS2 coat protein
Assay: apparent KD of MS2 coat protein; designed switch direction (-1 OFF switch, 1 ON switch): -1; higher = weaker reporter binding
Method in brief: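 An oligonucleotide input, 200 uM small-molecule ligand, or no input was present during titration of SNAP-549-labelled MS2 coat protein, which was doubled from 0.7 or 1.5 nM to 3 µM. Designed RNA switches had been transcribed on Illumina chips by stalled E. coli RNA polymerase. Apparent KD per design is the median over clusters of curves fitted to normalised cluster fluorescence.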

[1] = input ligand: microRNA oligo, concentration not stated
[2] = Eterna round: R95, input ligand: microRNA oligo, concentration not stated
[3] = Eterna round: R95, input ligand: FMN 200 uM
[4] = Eterna round: R95, input ligand: none

Sequence | apparent KD of MS2 coat protein (input ligand: FMN 200 uM) | apparent KD of MS2 coat protein (input ligand: none) | apparent KD of MS2 coat protein [1] | apparent KD of MS2 coat protein [2] | apparent KD of MS2 coat protein [3] | apparent KD of MS2 coat protein [4]
CAAUAACAAGCGAGAUCCUACAUGAGGAUCACCCAUGUGCUCGUCUUAUAAGGUACUGUGACGAUAGUCACGGUACC [Mat - Sensor, turn-off var - Eli Mod - D97] (Eterna round: R97, puzzle: Sensor, turn-off variant 1) | 18.9 nM | 19.6 nM |  |  |  | 
CAAUAGCGAGGAUAUACAUGAGGAUCACCCAUGUGAUCCUUAGGCUGUUGAAGCCUAUGUAGAAGGCGCAAAUU [jl-ex3.4.57 ViennaUCT mod] (Eterna round: R97, puzzle: Exclusion 3) | 198 nM | 138 nM |  |  |  | 
CAAUAGGGAGGAUAUCCAAUAUAUGACAUGAGGAUCACCCAUGUUUCCACUCGUACCUCCGGAGAAGGCCCAUAAC [Ex5 #7] (Eterna round: R97, puzzle: Exclusion 5) | 21.1 nM | 21.7 nM |  |  |  | 
CAAUAUUAUCGAGGAUAUCCUAUUGUAUUUCUGGGAGAAGGCGGACUCAACAUGAGGAUCACCCAUGUAAGACGGGUACUAGAU [Ex NG1 #20] (Eterna round: R96, puzzle: Exclusion NG 1) | 119 nM | 98.5 nM | 81 nM |  |  | 
CAAUGAGGAGUGAGGAUAUCGUGUUCGAAAGAACGUGAGAAGGCACAUGAGGAUCACCCAUGUGAUCCUCAUUG [Omei Ex4B A24] (Eterna round: R97, puzzle: Brourd's mod of Exclusion 4) | 98.2 nM | 53.3 nM |  |  |  | 
CAAUGUACCUAGGAUAUAACCUACGACAUUGGGUUAGAAGGAGGAACAUGAGGAUCACCCAUGUGACUUCGCAA [Abiisbe] (puzzle: Exclusion 6) |  |  |  | 9.5 nM |  | 
CAAUUCCGAGGAUAUACAUGAGGAUCACCCAUGUCGGGCCUCAGCGUUUAGCGCCUAAGUAGAAGGUGGGUUUC [JL Riri mod 4] (Eterna round: R96, puzzle: Exclusion 3) | 47.1 nM | 46.6 nM | 31.7 nM |  |  | 
CAAUUCCGAGGAUAUACAUGAGGAUCACCCAUGUCGGGCCUCAGCGUUUAGCGCCUAAGUAGAAGGUGGGUUUC [JL Riri mod 4] (puzzle: Exclusion 3) |  |  |  | 37.1 nM |  | 
CAAUUCUGAGGAUAUGUGCCUCUGGACAUGAGGAUCACCCAUGUGGAGGCUGUAUGGGAGGCAGAAGGUAGAGAUC [Eternabot (L1) Solution 7] (Eterna round: R97, puzzle: Exclusion 5) | 16.4 nM | 18.2 nM |  |  |  | 
CACACACAUGAGGAUCACCCAUGUCAGGAUAUCGACACACACCCACACAAACAAACCACGAGAAGGGACGGCCA [E4 1] (Eterna round: R97, puzzle: Exclusion 1) | 37 nM | 48.6 nM |  |  |  | 
CACACGUAAGGAUAUACAACGGAAACGGGCGCGCGGGCCUCACAUGAGGAUCACCCAUGUAGAAGGUGCACGGG [Eternabot (Original) Solution 18] (Eterna round: R97, puzzle: Exclusion 2) | 41.7 nM | 50.3 nM |  |  |  | 
CACAGGAGACGGAGAUCCAACAUGAGGAUCACCCAUGUCUCAAAAGCUUUUUGCUUGUCUUAUCCUCCUCUCUUGAC [Mat - Sensor, turn-off var - Eli Mod - D60] (Eterna round: R97, puzzle: Sensor, turn-off variant 1) | 26 nM | 28.1 nM |  |  |  | 
CACAUCAAAGGAUAUCUGGACCAAAACAUGAGGAUCACCCAUGUAUGAACAUGGCUCGACGGAGAAGGUUGGCUUC [Eternabot (L1) Solution 51] (Eterna round: R97, puzzle: Exclusion 5) | 86.2 nM | 79.3 nM |  |  |  | 
CACCCUUCAGGAUAUACAUGAGGAUCACCCAUGUGUUCCAGCUAGGAAACUAGCAAAUGUAGAAGGGAAGGGUG [Mat - Exclusion 3 - JL Mod - D5] (Eterna round: R97, puzzle: Exclusion 3) | 452 nM | 108 nM |  |  |  | 
CACCGUAACAGAGGAUAUGAAACAUGAGGAUCACCCAUGUAAUAAAUGAGAAUUUCGAAUGUACCUCAGAAGGCUGAAACCGGC [Ostricism 82 - Jieux - Exclusion NG 2] (Eterna round: R96, puzzle: Exclusion NG 2) | 56.8 nM | 43 nM | 31.9 nM |  |  | 
CACCGUUACAGAGGAUAUCUUACAUGAGGAUCACCCAUGUAAUAAAUGAGAAUUUCGGAUGUAUGAGAGAAGGCUGGAAUCGGC [Ostricism 38 - Jieux - Exclusion NG 2] (Eterna round: R96, puzzle: Exclusion NG 2) |  |  | 16.3 nM |  |  | 
CACCGUUACAGAGGAUAUGGUACAUGAGGAUCACCCAUGUAAUAAAUGAGAAUUUCGGAUGUAUUCCAGAAGGCUGUAAUCGGC [Ostricism 65 - Jieux - Exclusion NG 2] (Eterna round: R96, puzzle: Exclusion NG 2) | 74.9 nM | 53.5 nM | 34.1 nM |  |  | 

Sequence | apparent KD of MS2 coat protein (input ligand: FMN 200 uM) | apparent KD of MS2 coat protein (input ligand: none) | apparent KD of MS2 coat protein [1] | apparent KD of MS2 coat protein [2] | apparent KD of MS2 coat protein [3] | apparent KD of MS2 coat protein [4]
CACCGUUAGAGAGGAUAUCGUACAUGAGGAUCACCCAUGUAAUAAAUGAGAAUUUCGGAUGUAUGCGAGAAGGCUCGAAUCGGC [Ostracism 33 - Jieux - Exclusion NG 2] (Eterna round: R96, puzzle: Exclusion NG 2) |  |  | 38.6 nM |  |  | 
CACCUGAACACAGGAUAUCAUACAUGAGGAUCACCCAUGUAAUAAAUGAGAAUUUCGAAUGUAAUUGAGAAGGGUGGAUAAGGC [Ostricism 90 - Jieux - Exclusion NG 2] (Eterna round: R96, puzzle: Exclusion NG 2) | 97.8 nM | 41.1 nM | 34.6 nM |  |  | 
CACCUGAACUCAGGAUAUCAUACAUGAGGAUCACCCAUGUAAUAAAUGAGAAUUUCGAAUGUAAUUGAGAAGGGAGAAUAAGGC [Ostricism 98 - Jieux - Exclusion NG 2] (Eterna round: R96, puzzle: Exclusion NG 2) | 88.8 nM | 38.8 nM | 33.8 nM |  |  | 
CACCUGAAGUCAGGAUAUCAUACAUGAGGAUCACCCAUGUAAUAAAUGAGAAUUUCGAAUGUAAUUGAGAAGGGACAAUAAGGC [Ostricism 97 - Jieux - Exclusion NG 2] (Eterna round: R96, puzzle: Exclusion NG 2) | 93.2 nM | 44.2 nM | 34 nM |  |  | 
CACCUGAGAGGAUAUACGUUGAUGUUAUGCUAUGGAAAGUUACAUGAGGAUCACCCAUGUAGAAGGCUCAGGUA [Eternabot (L2) Solution 48] (Eterna round: R97, puzzle: Exclusion 2) | 75.4 nM | 18.8 nM |  |  |  | 
CACUGGACAGGAUAUGUUCUUGAGCACUUGAGGAUCACCCAAGUCAUCAAGAACUCAGGCACAGAAGGGUUUAUGC [salish99_ex5_r4_012] (Eterna round: R97, puzzle: Exclusion 5) | 24.7 nM | 14 nM |  |  |  | 
CACUGGACAGGAUAUGUUCUUGAGCACUUGAGGAUCACCCAAGUCAUCAAGAACUCAGGCACAGAAGGGUUUAUGG [salish99_ex5_r4_013] (Eterna round: R97, puzzle: Exclusion 5) | 38.9 nM | 16.9 nM |  |  |  | 
CACUGGACAGGAUAUGUUCUUGAGCACUUGAGGAUCACCCAAGUCAUCAAGAACUCAGGCACAGAAGGGUUUAUGU [salish99_ex5_r4_014] (Eterna round: R97, puzzle: Exclusion 5) | 44.5 nM | 15.8 nM |  |  |  | 
CAGAAACAUGAGGAUCACCCAUGUGAGGAUAUGAAAAAGAAAAGAAAAGAAAGAAGAAUCAGAAGGCACAAAGG [salish99-ex1_r3_081] (puzzle: Exclusion 1) |  |  |  | 30.8 nM | 39.9 nM | 38.5 nM
CAGAACUGAGGAUAUACAUGAGGAUCACCCAUGUGUUCCAGCUAGGAGACUAGCAUAUGUAGAAGGCAGUUCUG [Mat - Exclusion 3 - JL Mod - D11] (Eterna round: R97, puzzle: Exclusion 3) | 587 nM | 359 nM |  |  |  | 
CAGAAGGGAGGAUAUACAUGACCGUUUUAAUGGUUUUUAGUACAUGAGGAUCACCCAUGUAGAAGGCCCGAACU [EX2 B.23] (Eterna round: R97, puzzle: Exclusion 2) | 51 nM | 21.8 nM |  |  |  | 
CAGAGGAGACGGAGAUCCAACAUGAGGAUCACCCAUGUCUCAAAAGCUUUUUGCUUGUCUUAUCCUCCUCUCUUCAC [Mat - Sensor, turn-off var - Eli Mod - D59] (Eterna round: R97, puzzle: Sensor, turn-off variant 1) | 27.1 nM | 28.1 nM |  |  |  | 
CAGAUGGGUAACUACACCCACAUGAGGAUCACCCAUGUACACAUAGCUUACGCUCGUCUUAAGCGUGUUUUCGUAGC [Eternabot (L2) Solution 10] (Eterna round: R97, puzzle: Sensor, turn-off variant 1) | 32 nM | 33.4 nM |  |  |  | 
CAGCCCUGAGGAUAUCCCUCCUUGUACAUGAGGAUCACCCAUGUUCUCCUCUGGGCUUUGGGAGAAGGCAGAUCUC [Megrez-6.9] (Eterna round: R97, puzzle: Exclusion 5) | 41.1 nM | 46.5 nM |  |  |  | 
CAGCCUUGAGUUAGGAUAUGCGAUCGUGUAGACGAGCAGAAGGGACAUGAGGAUCACCCAUGUGAAAUAAUUAA [Begeti] (puzzle: Brourd's mod of Exclusion 4) |  |  |  | 13.2 nM | 18.3 nM | 13.4 nM
CAGCUGAAAGUCAGGAUAUCUAGAGCGAUAGCUCUAGAGAAGGGACAUGAGGAUCACCCAUGUGAUCACAGCUG [BmEx4/4-A4] (Eterna round: R97, puzzle: Brourd's mod of Exclusion 4) | 408 nM | 1980 nM |  |  |  | 
